Test results published in publication PMC9352680, “A comprehensive thermodynamic model for RNA binding by the Saccharomyces cerevisiae Pumilio protein PUF4”.

Target: T1, PUF4 RNA-binding domain (Saccharomyces cerevisiae, UniProt P25339 537-888)
T1 sequence: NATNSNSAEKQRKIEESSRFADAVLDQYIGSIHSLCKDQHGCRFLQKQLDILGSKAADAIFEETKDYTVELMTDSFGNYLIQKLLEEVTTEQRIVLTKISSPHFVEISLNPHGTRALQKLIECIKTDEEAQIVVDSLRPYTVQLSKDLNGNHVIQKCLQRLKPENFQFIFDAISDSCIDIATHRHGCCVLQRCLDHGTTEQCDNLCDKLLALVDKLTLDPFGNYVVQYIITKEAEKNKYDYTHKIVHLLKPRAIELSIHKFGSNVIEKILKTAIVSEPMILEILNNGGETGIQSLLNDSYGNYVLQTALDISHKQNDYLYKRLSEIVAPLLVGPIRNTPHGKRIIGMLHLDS
Test: Mg; RNA-MaP; 20 mM Na-HEPES pH 7.4, 30 mM KOAc, 0.75 mM MgCl2, 0.1% Tween-20, 5% glycerol, 0.1 mg/mL BSA, 2 mM DTT; 25 C; 0.0125-409.6 nM protein
Conditions: tags: N-His6-TEV cleaved; C-SNAP kept, Cy3B-labelled; label: tethered on chip by stalled RNA polymerase

UCUCUUAUACACUAUUACCUCUCUU (ssRNA) [Id_ii_S1_P4E.4_K4.3_C4.2_[C-2A]_H4.3_A4.1_F4.1_T4.2_[G10C]_[T11C]]
Kd: 26.4 nM

UCUCUUAUACACUAUUACAUCUCUU (ssRNA) [Id_ii_S1_P4E.4_K4.3_C4.2_[C-2A]_H4.3_A4.1_F4.1_T4.2_[G10C]_[T11A]]
Kd: 29.6 nM

UCUCUUAUACACUAUUACUUCUCUU (ssRNA) [Id_ii_S1_P4E.4_K4.3_C4.2_[C-2A]_H4.3_A4.1_F4.1_T4.2_[G10C]]
Kd: 31.1 nM

UCUCUUAUACACUAUUAUCUCUCUU (ssRNA) [Id_ii_S1_P4E.4_K4.3_C4.2_[C-2A]_H4.3_A4.1_F4.1_T4.2_[G10T]_[T11C]]
Kd: 21.8 nM

UCUCUUAUACACUAUUAUAUCUCUU (ssRNA) [Id_ii_S1_P4E.4_K4.3_C4.2_[C-2A]_H4.3_A4.1_F4.1_T4.2_[G10T]_[T11A]]
Kd: 31.1 nM

UCUCUUAUACACUAUUAUUUCUCUU (ssRNA) [Id_ii_S1_P4E.4_K4.3_C4.2_[C-2A]_H4.3_A4.1_F4.1_T4.2_[G10T]]
Kd: 35.2 nM

UCUCUUAUACACUAUUAACUCUCUU (ssRNA) [Id_ii_S1_P4E.4_K4.3_C4.2_[C-2A]_H4.3_A4.1_F4.1_T4.2_[G10A]_[T11C]]
Kd: 37.5 nM

UCUCUUAUACACUAUUAAAUCUCUU (ssRNA) [Id_ii_S1_P4E.4_K4.3_C4.2_[C-2A]_H4.3_A4.1_F4.1_T4.2_[G10A]_[T11A]]
Kd: 24.2 nM

UCUCUUAUACACUAUUAAUUCUCUU (ssRNA) [Id_ii_S1_P4E.4_K4.3_C4.2_[C-2A]_H4.3_A4.1_F4.1_T4.2_[G10A]]
Kd: 35.2 nM

UCUCUUUGUACUUUAUCUCUU (ssRNA) [Ib_S1_P4E.1_K4.1_C4.1_H4.1_A4.1_[T5C]_[A6T]_F4.1_T4.1]
Kd: 2.73 nM

UCUCUUAUACACUAUUAGCUCUCUU (ssRNA) [Id_ii_S1_P4E.4_K4.3_C4.2_[C-2A]_H4.3_A4.1_F4.1_T4.2_[T11C]]
Kd: 49.5 nM

UCUCUUAUACACUAUUAGUUCUCUU (ssRNA) [Id_ii_S1_P4E.4_K4.3_C4.2_[C-2A]_H4.3_A4.1_F4.1_T4.2]
Kd: 42.8 nM

UCUCUUCGACACUAUUACCUCUCUU (ssRNA) [Id_ii_S1_P4E.4_K4.3_C4.2_[T-1G]_H4.3_A4.1_F4.1_T4.2_[G10C]_[T11C]]
Kd: > 2300 nM

UCUCUUCGACACUAUUACAUCUCUU (ssRNA) [Id_ii_S1_P4E.4_K4.3_C4.2_[T-1G]_H4.3_A4.1_F4.1_T4.2_[G10C]_[T11A]]
Kd: > 2300 nM

UCUCUUCGACACUAUUACUUCUCUU (ssRNA) [Id_ii_S1_P4E.4_K4.3_C4.2_[T-1G]_H4.3_A4.1_F4.1_T4.2_[G10C]]
Kd: > 2300 nM

UCUCUUCGACACUAUUAUCUCUCUU (ssRNA) [Id_ii_S1_P4E.4_K4.3_C4.2_[T-1G]_H4.3_A4.1_F4.1_T4.2_[G10T]_[T11C]]
Kd: > 2300 nM

UCUCUUCGACACUAUUAACUCUCUU (ssRNA) [Id_ii_S1_P4E.4_K4.3_C4.2_[T-1G]_H4.3_A4.1_F4.1_T4.2_[G10A]_[T11C]]
Kd: > 2300 nM

UCUCUUCCACACUAUUACGUCUCUU (ssRNA) [Id_ii_S1_P4E.4_K4.3_C4.2_[T-1C]_H4.3_A4.1_F4.1_T4.2_[G10C]_[T11G]]
Kd: > 2300 nM

UCUCUUCCACACUAUUACCUCUCUU (ssRNA) [Id_ii_S1_P4E.4_K4.3_C4.2_[T-1C]_H4.3_A4.1_F4.1_T4.2_[G10C]_[T11C]]
Kd: > 2300 nM

UCUCUUCCACACUAUUACAUCUCUU (ssRNA) [Id_ii_S1_P4E.4_K4.3_C4.2_[T-1C]_H4.3_A4.1_F4.1_T4.2_[G10C]_[T11A]]
Kd: > 2300 nM

UCUCUUUGUAACUUAUCUCUU (ssRNA) [Ib_S1_P4E.1_K4.1_C4.1_H4.1_A4.1_[T5A]_[A6C]_F4.1_T4.1]
Kd: 8.33 nM

UCUCUUCCACACUAUUACUUCUCUU (ssRNA) [Id_ii_S1_P4E.4_K4.3_C4.2_[T-1C]_H4.3_A4.1_F4.1_T4.2_[G10C]]
Kd: > 2300 nM

UCUCUUCCACACUAUUAUAUCUCUU (ssRNA) [Id_ii_S1_P4E.4_K4.3_C4.2_[T-1C]_H4.3_A4.1_F4.1_T4.2_[G10T]_[T11A]]
Kd: > 2300 nM

UCUCUUCCACACUAUUAACUCUCUU (ssRNA) [Id_ii_S1_P4E.4_K4.3_C4.2_[T-1C]_H4.3_A4.1_F4.1_T4.2_[G10A]_[T11C]]
Kd: > 2300 nM

UCUCUUCCACACUAUUAAAUCUCUU (ssRNA) [Id_ii_S1_P4E.4_K4.3_C4.2_[T-1C]_H4.3_A4.1_F4.1_T4.2_[G10A]_[T11A]]
Kd: > 2300 nM

UCUCUUCCACACUAUUAGCUCUCUU (ssRNA) [Id_ii_S1_P4E.4_K4.3_C4.2_[T-1C]_H4.3_A4.1_F4.1_T4.2_[T11C]]
Kd: > 2300 nM

UCUCUUCCACACUAUUAGAUCUCUU (ssRNA) [Id_ii_S1_P4E.4_K4.3_C4.2_[T-1C]_H4.3_A4.1_F4.1_T4.2_[T11A]]
Kd: > 2300 nM

UCUCUUCCACACUAUUAGUUCUCUU (ssRNA) [Id_ii_S1_P4E.4_K4.3_C4.2_[T-1C]_H4.3_A4.1_F4.1_T4.2]
Kd: > 2300 nM

UCUCUUCAACACUAUUACGUCUCUU (ssRNA) [Id_ii_S1_P4E.4_K4.3_C4.2_[T-1A]_H4.3_A4.1_F4.1_T4.2_[G10C]_[T11G]]
Kd: > 2300 nM

UCUCUUCAACACUAUUACUUCUCUU (ssRNA) [Id_ii_S1_P4E.4_K4.3_C4.2_[T-1A]_H4.3_A4.1_F4.1_T4.2_[G10C]]
Kd: > 2300 nM

UCUCUUCAACACUAUUAUAUCUCUU (ssRNA) [Id_ii_S1_P4E.4_K4.3_C4.2_[T-1A]_H4.3_A4.1_F4.1_T4.2_[G10T]_[T11A]]
Kd: > 2300 nM
